Data: US20140378663A1

Target: T1, CD20 antigen on Raji lymphoblastoid B cells (UniProt P11836)
T1 sequence (looked up): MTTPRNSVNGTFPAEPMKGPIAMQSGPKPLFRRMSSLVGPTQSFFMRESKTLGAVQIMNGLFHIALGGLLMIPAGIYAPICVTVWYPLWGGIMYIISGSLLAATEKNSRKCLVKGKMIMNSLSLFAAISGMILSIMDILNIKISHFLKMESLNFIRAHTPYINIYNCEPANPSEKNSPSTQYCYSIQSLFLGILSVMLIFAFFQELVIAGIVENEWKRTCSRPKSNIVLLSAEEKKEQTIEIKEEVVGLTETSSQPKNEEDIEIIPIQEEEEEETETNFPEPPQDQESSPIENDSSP
Test: flow cytometry on Raji cells

Ag binding MFI (Arbitrary Unit): 123
B1: R603 chimeric anti-CD20 antibody (LFB-R603), IgG1 with wild-type Fc (antibody, INN chains, looked up, V domains shown, part only)
VH: QAYLQQSGAELVRPGASVKMSCKASGYTFTSYNMHWVKQTPRQGLEWIGGIYPGNGDTSYNQKFKGKATLTVGKSSSTAYMQLSSLTSEDSAVYFCARYDYNYAMDYWGQGTSVTVSS
VL: QIVLSQSPAILSASPGEKVTMTCRASSSVSYMHWYQQKPGSSPKPWIYATSNLASGVPARFSGSGSGTSYSFTISRVEAEDAATYYCQQWTFNPPTFGGGTRLEIK
modifications: IgG1
